Test system: MS2 coat protein
Test: apparent KD of MS2 coat protein; designed switch direction (-1 OFF switch, 1 ON switch): -1; higher = weaker reporter binding
How it was run: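 Normalised cluster fluorescence was curve-fitted, and each design's median over clusters is its apparent KD. Before this, SNAP-549-labelled MS2 coat protein was titrated from 0.7 or 1.5 nM, doubling to 3 µM, over RNA switches transcribed on Illumina chips by stalled E. coli RNA polymerase. Titrations had no input, 200 uM small-molecule ligand, or an oligonucleotide input, and steps lasted 0.8–1.5 h (lowest) to 10–20 min (highest).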

[1] = input ligand: microRNA oligo, concentration not stated
[2] = Eterna round: R95, input ligand: microRNA oligo, concentration not stated
[3] = Eterna round: R95, input ligand: FMN 200 uM
[4] = Eterna round: R95, input ligand: none

Sequence	apparent KD of MS2 coat protein (input ligand: FMN 200 uM)	apparent KD of MS2 coat protein (input ligand: none)	apparent KD of MS2 coat protein [2]	also measured
AUAAUGUCAGGAUAUCAGUCGACUAGCUGCGGCUAGUCGACUGAGAAGGGACAUGAGGAUCACCCAUGUGUUUC [E4/14-A3] (Eterna round: R97, puzzle: Exclusion 4)	475 nM	367 nM	–	–
AUAAUGUGAGGAUAUCAGUCGACUAGCGAUAGCUAGUCGACUGAGAAGGCACAUGAGGAUCACCCAUGUGUUUC [E4/15-A4] (Eterna round: R97, puzzle: Exclusion 4)	44.4 nM	16.8 nM	–	–
AUAAUGUGAGGAUAUCAGUCGACUAGCUGCGGCUAGUCGACUGAGAAGGUACAUGAGGAUCACCCAUGUGGUUC [E4/11-B3] (Eterna round: R97, puzzle: Exclusion 4)	904 nM	434 nM	–	–
AUAAUUAAUGCAGGAUAUCAGCACGUGUAGUGCUGAGAAGGGCACAUGAGGAUCACCCAUGUGAUCAAUUAAUAUUAAUAUUAU [ENG1/11-D3] (Eterna round: R96, puzzle: Exclusion NG 1)	–	–	–	apparent KD of MS2 coat protein [1]: 48.4 nM
AUACAGGAAGGAUAUACAUGAGGAUCACCCAUGUAGGAAAACCUACCAAAAGACCCAAGUAGAAGGUCCGAUAC [jl-ex3-4.74 ViennaUCT mod] (Eterna round: R97, puzzle: Exclusion 3)	21.8 nM	19.4 nM	–	–
AUACCACGAGGAUAUCGUCUAUUUCACAUGAGGAUCACCCAUGUUAUCUUUGUUUCGUUUCGAGAAGGCGUGUUUU [JR_E5_Sub077] (puzzle: Exclusion 5)	–	–	30.1 nM	–
AUACCACGAGGAUAUCGUCUAUUUUACAUGAGGAUCACCCAUGUUAUCUUUGUAAUGUUUCGAGAAGGCGUGUUUU [JR_E5_Sub080] (puzzle: Exclusion 5)	–	–	31.7 nM	–
AUACCACGAGGAUAUCGUCUAUUUUACAUGAGGAUCACCCAUGUUAUCUUUGUUUUGUUUCGAGAAGGCGUGUUUU [JR_E5_Sub079] (puzzle: Exclusion 5)	–	–	24.6 nM	–
AUAGAGUCAGGAUAUACAGGUGGAGGAGAGCAGCAUAAGGAGUAGAAGGGACAUGAGGAUCACCCAUGUAAGUG [JR_Exclu4_Sub059] (puzzle: Exclusion 4)	–	–	63.9 nM	apparent KD of MS2 coat protein [3]: 45.9 nM; apparent KD of MS2 coat protein [4]: 56.9 nM
AUAGAGUUAGGAUAUGAGAGGCCGAACAUGAGGAUCACCCAUGUUCCGCGUGUUGCUCCCUUAGAAGGAACGAAUA [EX5 B.3] (Eterna round: R97, puzzle: Exclusion 5)	14.7 nM	22 nM	–	–
AUAGUAGAAGUGAGGAUAUCGUAGAUUUUAGGAAACGAGAAGGCACAUGAGGAUCACCCAUGUAAGAUGGAGGU [JR_BMOE4_Sub051] (Eterna round: R96, puzzle: Brourd's mod of Exclusion 4)	380 nM	132 nM	–	apparent KD of MS2 coat protein [1]: 126 nM
AUAGUAGAAGUGAGGAUAUCGUAGAUUUUAGGAAACGAGAAGGCACAUGAGGAUCACCCAUGUAAGAUGGAGGU [JR_BMOE4_Sub051] (puzzle: Brourd's mod of Exclusion 4)	–	–	263 nM	apparent KD of MS2 coat protein [3]: 104 nM; apparent KD of MS2 coat protein [4]: 124 nM
AUAGUCUGGCAAGGAUAUAGGAAAGGAAGUGUACUAGAAGGUGCGCAGACAUGAGGAUCACCCAUGUGAGCCGACGAAAUAAUA [PowerStrip EXNG 1.17] (Eterna round: R96, puzzle: Exclusion NG 1)	523 nM	141 nM	–	apparent KD of MS2 coat protein [1]: 88.5 nM
AUAUAACAUGAGGAUCACCCAUGUGAGGAUAUGCGAUAUAUAAUAAUAAUAAUAAUAAGCAGAAGGCACAAAAU [My FIrst Design] (puzzle: Exclusion 1)	–	–	78.7 nM	apparent KD of MS2 coat protein [3]: 60.2 nM; apparent KD of MS2 coat protein [4]: 71.7 nM
AUAUACGGAGGAUAUACUUGAGGAUCACCCAAGUGGGAUCCCGUUUGGGCGGUAAAUAGUAGAAGGCCGACCCA [jl-ex3-4.41 ViennaUCT mod] (Eterna round: R97, puzzle: Exclusion 3)	31.3 nM	29 nM	–	–
AUAUACGUUGAGGAUAUGCGAAUAAGUAUAGUUGCAGAAGGCGACACAUGAGGAUCACCCAUGUUCAUGGACAC [LRO-Ex6-03] (puzzle: Exclusion 6)	–	–	26.6 nM	–
AUAUAGCGAGGAUAUACAUGAGGAUCACCCAUGUGGUAGUAGAUACGGUAGGGCUAGUGUAGAAGGUGCUAUGA [EX3 #12] (Eterna round: R97, puzzle: Exclusion 3)	450 nM	231 nM	–	–
AUAUAGUCAGGAUAUCGAAGUGUGUGUUGGUUUGUAAUUUACGAGAAGGGACAUGAGGAUCACCCAUGUAGGAA [JR_Exclusion4)Sub002] (Eterna round: R96, puzzle: Exclusion 4)	49.3 nM	44.1 nM	–	apparent KD of MS2 coat protein [1]: 33.8 nM

Sequence	apparent KD of MS2 coat protein (input ligand: FMN 200 uM)	apparent KD of MS2 coat protein (input ligand: none)	apparent KD of MS2 coat protein [2]	also measured
AUAUAGUCAGGAUAUCGAAGUGUGUGUUGGUUUGUAAUUUACGAGAAGGGACAUGAGGAUCACCCAUGUAGGAA [JR_Exclusion4)Sub002] (puzzle: Exclusion 4)	–	–	35.8 nM	–
AUAUAUAGUGUGAGGAUAUGCUGGUCCUUGGAUCAGCAGAAGGCACAUGAGGAUCACCCAUGUAGUUAAAUAUA [Mat - Exclusion 4 - JL Mod - D19] (puzzle: Brourd's mod of Exclusion 4)	–	–	32.1 nM	–
AUAUAUAGUGUGAGGAUAUGCUGGUCCUUGGAUCAGCAGAAGGCACAUGAGGAUCACCCAUGUAGUUUAUUUUG [Mat - Exclusion 4 - JL Mod - D6] (puzzle: Brourd's mod of Exclusion 4)	–	–	17.3 nM	–
AUAUCAAGCAAGGAUAUGCAAAUGGUUAUUUAUGCAGAAGGUGCAACAUGAGGAUCACCCAUGUUUCUGGGUUU [JR_E6_Sub049] (Eterna round: R96, puzzle: Exclusion 6)	124 nM	55.7 nM	–	apparent KD of MS2 coat protein [1]: 41.7 nM
AUAUCAAGCAAGGAUAUGCAAAUGGUUAUUUAUGCAGAAGGUGCAACAUGAGGAUCACCCAUGUUUCUGGGUUU [JR_E6_Sub049] (puzzle: Exclusion 6)	–	–	48.2 nM	–
AUAUCACAUGAGGAUCACCCAUGUCAGGAUAUCGACUGAACAGCUUCGGCUGUUCAGUCGAGAAGGGACAAUUA [Brourdxlusion 2 - Jieux - Exclusion 1] (Eterna round: R97, puzzle: Exclusion 1)	84.9 nM	56.2 nM	–	–
AUAUCGUGAGGAUAUCCAAUAUAUGACAUGAGGAUCACCCAUGUUUCCACUCGUACCUCCGGAGAAGGCACAGUUU [Ex5 #71] (Eterna round: R97, puzzle: Exclusion 5)	22.4 nM	32.2 nM	–	–
AUAUGCAAGUAAAGAUCCUACAUGAGGAUCACCCAUGUGCUCGUCUUAUAAAGUACUAUCACGAAAGUGAUAGUACA [Mat - Sensor v3 - turn-off var 1 - Eli Mod - D84] (puzzle: Sensor v3, turn-off variant 1)	–	–	15.6 nM	apparent KD of MS2 coat protein [3]: 215 nM; apparent KD of MS2 coat protein [4]: 170 nM
AUAUUACAUGAGGAUCACCCAUGUGAGGAUAUGGAGAGCGACCGCCCGGUCGCGUACACCAGAAGGCGCAGGCG [1st #59] (Eterna round: R97, puzzle: Exclusion 1)	85.7 nM	41.1 nM	–	–
AUAUUACAUGAGGAUCACCCAUGUGAGGAUAUGGAGCGAGACUGUCCUGUCGCGUACACCAGAAGGCGCGGGUG [1st #52] (Eterna round: R97, puzzle: Exclusion 1)	183 nM	118 nM	–	–
AUAUUGUGAGGAUAUGAACUUAGUAUCGAAAGAUACAAAGUUCAGAAGGCACAUGAGGAUCACCCAUGUUUCUC [Long static hairpin v7] (Eterna round: R97, puzzle: Exclusion 4)	703 nM	76.1 nM	–	–
AUAUUGUGAGGAUAUGAACUUAGUAUCGAAAGAUACUUAGUUCAGAAGGCACAUGAGGAUCACCCAUGUUUCUC [Long static hairpin v17] (Eterna round: R97, puzzle: Exclusion 4)	883 nM	69.8 nM	–	–
AUAUUGUGAGGAUAUGAACUUAGUAUCGAAAGAUAGUAAGUUCAGAAGGCACAUGAGGAUCACCCAUGUUUCUC [Long static hairpin v8] (Eterna round: R97, puzzle: Exclusion 4)	399 nM	69.8 nM	–	–
AUCAGCUCGUGAGGAUAUACAUCACUGCUUCGGCAGUGUAUUAAGAUCACAUGAGGAUCACCCAUGUAGAAGGUACGAGCUGAU [ENG2/2-C3] (Eterna round: R96, puzzle: Exclusion NG 2)	215 nM	26.1 nM	–	apparent KD of MS2 coat protein [1]: 20.8 nM
AUCAUAACCUAGGAUAUGUAGCAGCCCGCAGCGACAGAAGGAGGUACAUGAGGAUCACCCAUGUCCACUCCCGU [EX6 C.11] (Eterna round: R97, puzzle: Exclusion 6)	12.4 nM	11.8 nM	–	–
AUCAUGGACGCAGGAUAUACAUGAGGAUCACCCAUGUAGUAUGAUCAGUGAUGGUCGUCGAUAGUGUAGAAGGGCGGCUAGUAG [random] (Eterna round: R96, puzzle: Exclusion NG 2)	34.4 nM	32.8 nM	–	apparent KD of MS2 coat protein [1]: 24.2 nM
AUCAUGUAAGGAUAUCUUACAUGUGACUUCGGUCACUGUCAAGAGAAGGUACAUGAGGAUCACCCAUGUAUGAC [Ex4-3: 51] (puzzle: Exclusion 4)	–	–	16.8 nM	–
AUCAUGUCAGGAUAUAUGACAUGGCUCUUCGGAGCAAGCUCAUAGAAGGGACAUGAGGAUCACCCAUGUAGAGC [Ex4-3: 22] (puzzle: Exclusion 4)	–	–	22.1 nM	–
